Like-named read-outs stand apart in the source and are kept apart here.
Assays:
pro-MMP-9 [1] = target: T1, pro-MMP-9 (Homo sapiens, UniProt P14780, Q279R/R574P); details: cited from earlier work
T1 construct: Human MMP-9 protein (without)

HT1080 cells = details: cited from earlier work
[2] = in vivo; cited from earlier work
MDA-MB-435 = MDA-MB-435 mouse models; cited from earlier work
[3] = tested on: fibrodysplasia ossificans progressiva; details: in vivo; cited from earlier work
[4] = Pooled safety analysis of double-blind placebo-controlled trials, subcutaneous andecaliximab monotherapy, non-oncologic conditions; assay type: in vivo, human; details: for Participants with TEAE assessed as related to study drug: double-blind period
Procedure: A pooled analysis was conducted of all safety data from prior randomized, double-blind, placebo-controlled clinical trials where andecaliximab was administered subcutaneously as a monotherapy in non-oncologic conditions.
The pooled safety analysis consisted of 347 patients enrolled in double-blind (DB) placebo-controlled trials [age 18-78 yrs, median duration of treatment: DB=8 wk; DB+ open label extension (OLE)=17 wk; max 75 wk]. During the DB treatment period, treatment-emergent adverse event (TEAE) assessed as related to study drug occurred in 19 (17.8%) receiving 150 mg Q2W, 23 (20.2%) receiving 150 mg QW, 13 (22.4%) receiving 300 mg QW, none of those receiving 600 mg andecaliximab QW, and 20 participants (22.0%) received a placebo. Treatment-related TEAEs more common with andecaliximab compared with placebo (difference of >1 percentage point) were injection site erythema (2.1% versus 1.1%), headache (1.4% versus 0%), anemia (1.1% versus 0%), and injection site pain (1.1% versus 0%).

MMP-9 [5] = target: T2, MMP-9 (Homo sapiens, UniProt P14780); details: cited from earlier work
Target sequence in this assay (P14780 107-707 limits assumed): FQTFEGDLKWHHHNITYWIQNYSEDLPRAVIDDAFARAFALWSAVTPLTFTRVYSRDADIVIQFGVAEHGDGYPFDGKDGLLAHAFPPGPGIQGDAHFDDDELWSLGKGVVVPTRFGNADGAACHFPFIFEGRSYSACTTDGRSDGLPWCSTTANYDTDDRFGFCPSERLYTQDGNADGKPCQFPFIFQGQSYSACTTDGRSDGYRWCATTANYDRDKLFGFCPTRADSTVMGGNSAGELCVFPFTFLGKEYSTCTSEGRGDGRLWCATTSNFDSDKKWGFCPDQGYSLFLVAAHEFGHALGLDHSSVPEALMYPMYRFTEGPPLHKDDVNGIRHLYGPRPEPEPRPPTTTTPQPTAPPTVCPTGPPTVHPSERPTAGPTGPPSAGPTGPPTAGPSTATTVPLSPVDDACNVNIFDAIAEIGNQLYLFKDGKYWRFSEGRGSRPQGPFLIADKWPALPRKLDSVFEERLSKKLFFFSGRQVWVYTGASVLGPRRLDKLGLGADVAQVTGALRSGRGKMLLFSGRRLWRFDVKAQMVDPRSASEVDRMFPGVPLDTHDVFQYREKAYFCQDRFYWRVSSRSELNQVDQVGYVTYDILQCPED

pro-MMP-9 [6] = target: T1, pro-MMP-9; details: cited from earlier work; remark: listed apart in the source
pro-MMP-9 [7] = target: T1, pro-MMP-9; details: read-out: IC50, activation of MMP-9 from human pro-MMP-9; cited from earlier work
[8] = human, in vivo; cited from earlier work
MMP-9 [9] = target: T2, MMP-9; details: read-out: Ki against MMP-9, cited from earlier work
Target sequence in this assay (P14780 94-707): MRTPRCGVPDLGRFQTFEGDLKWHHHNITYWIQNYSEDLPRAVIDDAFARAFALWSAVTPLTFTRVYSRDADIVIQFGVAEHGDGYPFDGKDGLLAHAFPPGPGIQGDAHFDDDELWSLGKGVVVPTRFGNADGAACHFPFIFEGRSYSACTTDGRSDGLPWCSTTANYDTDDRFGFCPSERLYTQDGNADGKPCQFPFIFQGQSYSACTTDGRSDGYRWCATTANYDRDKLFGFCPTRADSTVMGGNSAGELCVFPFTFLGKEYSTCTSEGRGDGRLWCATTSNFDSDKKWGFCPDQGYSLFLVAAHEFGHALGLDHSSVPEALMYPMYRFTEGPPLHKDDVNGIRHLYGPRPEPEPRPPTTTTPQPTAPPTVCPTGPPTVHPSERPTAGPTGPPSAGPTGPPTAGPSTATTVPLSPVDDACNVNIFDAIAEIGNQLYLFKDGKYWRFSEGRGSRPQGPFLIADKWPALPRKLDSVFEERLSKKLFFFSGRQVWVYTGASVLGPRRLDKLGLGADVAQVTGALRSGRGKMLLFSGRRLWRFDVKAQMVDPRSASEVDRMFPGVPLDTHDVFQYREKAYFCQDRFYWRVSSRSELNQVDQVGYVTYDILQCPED

[10] = tested on: mouse model of multiple sclerosis; details: cited from earlier work
heterotopic ossification = assay: Inducible FOP mouse model (Acvr1 R206H, tamoxifen plus cardiotoxin), HO volume by micro-CT; assay type: in vivo, mice; details: 30 mg/kg loading, then 15 mg/kg IP; micro CT 14-24 days post-injury
Procedure: FIG. 1 is a plot showing heterotopic ossification (HO) in an inducible mouse model of FOP having the R206H mutation (Acvr1[R206H]FIEx/+, Gt(ROSA26)SorCreERT2/+) treated with a control vehicle or AB0046 antibody (murine surrogate of andecaliximab that recapitulates MMP-9 inhibitory activity). The induction of disease occurred via tamoxifen (75 mg/kg×7 days, IP) and cardiotoxin injection on day 0 (10 μM, 100 μL) in the right gastrocnemius muscle. Dosing occurred at 30 mg/kg three days prior to injury (loading dose to address initial target-mediated drug disposition), then 15 mg/kg on days 0 and 3, or 15 mg/kg continuing twice per week after day […]. Ex vivo quantification of HO at the injury site was assessed using high-resolution micro CT and analyzed using 3D morphometry.
As described in Hatsell et al (Science Translational Medicine 2015), a knock-in transgenic model (Acvr1[R206H]FIEx/+; Gt(ROSA26)SorCreERT2/+) is used for these studies. […]
Faxitron images (medio-lateral view) of the collected entire right and left hindlimbs from all animals were performed (ex vivo) to document the presence of ectopic bone. Images were assessed qualitatively.
The effect of the anti-MMP-9 antibody, AB0046, on bone formation in the mouse model was evaluated ex vivo at the end of the in-life period. […]

[11] = tested on: colorectal carcinoma xenograft; details: surgical orthotopic xenograft model of colorectal carcinoma; cited from earlier work
[12] = pooled andecaliximab (placebo 0%)

T1 sequence (P14780 20-707 Q279R/R574P): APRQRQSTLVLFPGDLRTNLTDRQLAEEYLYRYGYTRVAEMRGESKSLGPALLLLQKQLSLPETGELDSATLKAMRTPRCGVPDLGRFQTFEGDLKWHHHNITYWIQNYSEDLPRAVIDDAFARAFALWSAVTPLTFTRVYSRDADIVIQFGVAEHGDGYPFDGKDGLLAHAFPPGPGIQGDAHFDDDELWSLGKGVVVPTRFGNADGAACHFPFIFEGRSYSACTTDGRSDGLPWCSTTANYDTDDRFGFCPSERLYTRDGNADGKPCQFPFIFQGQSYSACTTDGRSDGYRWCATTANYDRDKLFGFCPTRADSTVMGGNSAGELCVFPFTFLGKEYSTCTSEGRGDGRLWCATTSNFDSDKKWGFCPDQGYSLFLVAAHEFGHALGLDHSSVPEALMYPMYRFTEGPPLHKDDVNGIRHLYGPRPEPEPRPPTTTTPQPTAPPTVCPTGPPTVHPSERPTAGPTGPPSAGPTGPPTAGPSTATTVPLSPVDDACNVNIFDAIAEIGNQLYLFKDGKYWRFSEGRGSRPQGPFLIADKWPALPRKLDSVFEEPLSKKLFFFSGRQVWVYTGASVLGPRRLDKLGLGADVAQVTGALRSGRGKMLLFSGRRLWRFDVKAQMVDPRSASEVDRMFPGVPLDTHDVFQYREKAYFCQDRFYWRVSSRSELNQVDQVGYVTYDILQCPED

## COc1ccccc1Nc1nc(-c2sc(NC(C)=O)nc2C)cs1 [JNJ0966, N-(2-((2-methoxyphenyl)amino)-4′-methyl-[4,5′-bithiazol]-2′yl) acetamide]
pro-MMP-9 [1]
  Activation of pro-MMP-9: prevents the activation of pro-MMP-9
HT1080 cells
  Migration of HT1080 cells: inhibits the migration of HT1080 cells
[2]
  Blood-brain barrier penetration: penetrates the blood-brain barrier

## CCCc1cc(=O)nc(SCC(=O)Nc2ccc(OC(F)F)cc2)[nH]1 [N-[4-(difluoromethoxy)phenyl]-2-[(4-oxo-6-propyl-1H-pyrimidin-2-yl)sulfanyl]-acetamide]
MDA-MB-435
  Tumor growth and metastasis: reduced tumor growth and metastasis

## CC1(C)CCC(C)(C)c2cc(Cn3cccn3)c(/C=C/c3ccc(C(=O)O)cc3)cc21 [Palovarotene, palovarotene]
[3]
  Effect in mouse model of fibrodysplasia ossificans progressiva: shown promise

## andecaliximab: anti-MMP-9 recombinant chimeric, humanized antibody; heavy chain SEQ ID NO: 35, light chain SEQ ID NO: 36
[4]; 150 mg Q2W
  Participants with TEAE assessed as related to study drug: 17.8%
[4]; 150 mg QW
  Participants with TEAE assessed as related to study drug: 20.2%
[4]; 300 mg QW
  Participants with TEAE assessed as related to study drug: 22.4%
[4]; 600 mg QW
  Participants with TEAE assessed as related to study drug: none
[4]; [12]
  Treatment-related TEAE: anemia: 1.1%
  Treatment-related TEAE: headache: 1.4%
  Treatment-related TEAE: injection site pain: 1.1%
[4]; pooled andecaliximab (placebo 1.1%)
  Treatment-related TEAE: injection site erythema: 2.1%
MMP-9 [5]
  Kd: 2 to 6.6 nM
pro-MMP-9 [6]
  Kd: 0.008 to 0.043 nM
pro-MMP-9 [7]
  IC50: 0.0082 nM
[8]
  Safety and tolerability in clinical trials: safe and well-tolerated

## α1(V)GlyΨ{PO2H—CH2} Val [mep14, 32,Flp15, 33] THPI
MMP-9 [9]; 25° Celsius
  Ki: 90.6 nM
MMP-9 [9]; 37° Celsius
  Ki: 0.98 nM
[10]
  Clinical severity and weight loss: effectively reduced clinical severity and weight loss

B1: AB0046: murine surrogate of andecaliximab that recapitulates MMP-9 inhibitory activity; SEQ ID NO: 33 and 32 (antibody)
heavy: MGWSSIILFLVATATGVHSQVQLQQPGSVLVRPGASVKLSCTASGYTFTSYWMNWVKQRPGQGLEWIGEIYPISGRTNYNEKFKVKATLTVDTSSSTAYMDLNSLTSEDSAVYYCARSRANWDDYWGQGTTLTVSSAKTTPPSVYPLAPGSAAQTNSMVTLGCLVKGYFPEPVTVTWNSGSLSSGVHTFPAVLQSDLYTLSSSVTVPSSTWPSETVTCNVAHPASSTKVDKKIVPRDCGCKPCICTVPEVSSVFIFPPKPKDVLTITLTPKVTCVVVDISKDDPEVQFSWFVDDVEVHTAQTQPREEQFNSTFRSVSELPIMHQDWLNGKEFKCRVNSAAFPAPIEKTISKTKGRPKAPQVYTIPPPKEQMAKDKVSLTCMITDFFPEDITVEWQWNGQPAENYKNTQPIMDTDGSYFVYSKLNVQKSNWEAGNTFTCSVLHEGLHNHHTEKSLSHSPGK
light: MSSAQFLGLLLLCFQGTRCDIQMTQTTSSLSASLGDRVTISCSASQGISNYLNWYQQKPDGTFKLLIYYTSILHSGVPSRFSGSGSGTDYSLTISNLEPEDIATYYCQQYGWLPRTFGGGTKLEIKRADAAPTVSIFPPSSEQLTSGGASVVCFLNNFYPKDINVKWKIDGSERQNGVLNSWTDQDSKDSTYSMSSTLTLTKDEYERHNSYTCEATHKTSTSPIVKSFNRNEC
Heterotopic ossification
  Heterotopic ossification (HO) at the injury site versus IgG control: reduced HO in mice
[11]
  Tumor growth and metastasis: reduced tumor growth and metastasis
